Laboratory results taken from patent publication US20260242478A1 (published 2026).
Where no end group is shown, it is not given here.

How the values were obtained:
[1] = target: T1, Anti-PSMA Fab (SEQ ID NOs: 19, 20); assay: phage binding ELISA; Fab-coated wells pre-incubated with PSMA antigen (competitor: PSMA), then clonal phage, anti-M13 HRP detection
T1 construct: Biotinylated and captured on neutravidin coated plates in the phage ELISA; also called 006 PSMA Fab
Experimental: (§1) Clonal phage were harvested as crude supernatants and screened via standard ELISAs. […] Prior to the addition of clonal phage. wells were incubated with blocking buffer and PSMA antigen or blocking buffer alone. Without washing or aspirating, clonal phage supernatants were then added to the wells and incubated for a short time. Wells were then washed followed by detection of bound phage using a horse radish conjugated anti-M13 antibody.

[2] = target: T1, Anti-PSMA Fab (SEQ ID NOs: 19, 20); assay: phage binding ELISA; biotinylated anti-PSMA Fab captured on neutravidin plate, clonal phage supernatant, anti-M13 HRP detection
Experimental: as §1

[3] = target: T2, Anti-CD28 scFv (VH - linker 1 - VL) (biotinylated (site not stated)); assay: phage ELISA; biotinylated anti-CD28 scFv on neutravidin plate, clonal phage supernatant, anti-M13-HRP detection;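 also: before phage addition, wells were pretreated with soluble CD28 protein in blocking buffer, or with blocking buffer only as the comparison, then phage were added without washing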
T2 construct: Biotinylated and captured on neutravidin-coated plates in the phage panning ELISA

[4] = target: T2, Anti-CD28 scFv (VH - linker 1 - VL); assay: phage ELISA; biotinylated anti-CD28 scFv on neutravidin plate, wells pre-incubated with soluble CD28 as competitor, anti-M13-HRP detection
Experimental: Clonal phage were harvested as crude supernatants and screened via standard enzyme linked immunosorbent assays (ELISAs). […] Prior to the addition of clonal phage, wells were incubated with blocking buffer and CD28 soluble protein or blocking buffer alone. Without washing or aspirating, clonal phage supernatants were then added to the wells and incubated for a short time. Wells were then washed followed by detection of bound phage using a horse radish peroxidase conjugated anti-M13 antibody.

[5] = target: anti-CD28 scFv (VH - linker 1 - VL) (biotinylated (site not stated)); assay: same phage ELISA, wells pre-incubated with soluble CD28 (competitor)
anti-CD28 Fab = assay: competition ELISA, peptide titrated 0-100 uM against 1 nM anti-CD28 Fab, plate-bound CD28 as competitor
anti-CD28 Fab, sequence (VH, as listed by the source, chain 1 of 2): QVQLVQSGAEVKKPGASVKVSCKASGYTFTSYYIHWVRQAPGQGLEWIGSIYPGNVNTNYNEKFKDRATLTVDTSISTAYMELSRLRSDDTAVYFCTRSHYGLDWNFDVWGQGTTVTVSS
anti-CD28 Fab, sequence (VL, as listed by the source, chain 2 of 2): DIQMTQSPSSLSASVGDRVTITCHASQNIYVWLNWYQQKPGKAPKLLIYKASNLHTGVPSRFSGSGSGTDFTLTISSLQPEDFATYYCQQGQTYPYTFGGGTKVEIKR

T2 sequence (scFv, as listed by the source): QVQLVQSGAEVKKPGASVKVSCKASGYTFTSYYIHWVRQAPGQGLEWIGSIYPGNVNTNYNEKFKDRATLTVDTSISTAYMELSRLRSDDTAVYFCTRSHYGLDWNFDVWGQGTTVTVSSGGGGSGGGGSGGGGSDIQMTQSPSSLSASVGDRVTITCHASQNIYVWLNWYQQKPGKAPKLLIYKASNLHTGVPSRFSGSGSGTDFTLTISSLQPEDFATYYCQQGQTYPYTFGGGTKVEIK
anti-CD28 scFv (VH - linker 1 - VL) (biotinylated (site not stated)), sequence (scFv, as listed by the source): as above

| Binder | CD28 scFv signal [3] | CD28 scFv signal in presence of CD28 [4] | IC50 (anti-CD28 Fab) [µM] | also measured |
| --- | --- | --- | --- | --- |
| SIPCIPRDWLCPIK (tested as crude phage supernatant) [Phage-1725 (clonal phage displaying the peptide of SEQ ID NO: 2009)] | – | – | – | Anti-PSMA Fab signal in the presence of PSMA [1]: 0.239; Anti-PSMA Fab (SEQ ID NOs: 19, 20) signal [2]: 1.8 |
| IVWCPTTQWNRCAT (tested as crude clonal phage supernatant) [Phage-434 clonal phage peptide IVWCPTTQWNRCAT] | 0.067 | 0.083 | – | – |
| MNWCPSTMWNRCLT (tested as crude clonal phage supernatant) [Phage-428 clonal phage peptide MNWCPSTMWNRCLT] | 0.065 | 0.07 | – | – |
| IDWCPIIQGLPCFA (tested as crude clonal phage supernatant) [Phage-432 clonal phage peptide IDWCPIIQGLPCFA] | 0.368 | 0.065 | – | – |
| MDWCPRDRWVDCYA (tested as crude clonal phage supernatant) [Phage-435 clonal phage peptide MDWCPRDRWVDCYA] | 1.48 | 0.403 | – | – |
| IYWCPTAMWNRCSA (tested as crude clonal phage supernatant) [Phage-417 clonal phage peptide IYWCPTAMWNRCSA] | 0.817 | 0.073 | – | – |
| NCWWHDFRAGHVVC (tested as crude phage supernatant) [Phage-1723 (clonal phage displaying the peptide of SEQ ID NO: 2007)] | – | – | – | Anti-PSMA Fab signal in the presence of PSMA [1]: 0.0972; Anti-PSMA Fab (SEQ ID NOs: 19, 20) signal [2]: 2.05 |
| MDWCPMSRWAFCFD (tested as crude clonal phage supernatant) [Phage-438 clonal phage peptide MDWCPMSRWAFCFD] | 1 | 0.115 | – | – |
| MDWCPLHMWHECFS (peptide, not shown: large carriers, Clonal phage supernatant) [Phage-23] | – | – | – | CD28 scFv signal in presence of CD28 [5]: 0.151 |
| MDLCPTAMWNRCFY (tested as crude clonal phage supernatant) [Phage-425 clonal phage peptide MDLCPTAMWNRCFY] | 0.097 | 0.084 | – | – |
| ACAGHAWQYINKCL [Peptide-107] | – | – | > 100 | – |
| YCAGHAWQYANKCL [Peptide-113] | – | – | 102 | – |
| YCAAHAWQYINKCL [Peptide-108] | – | – | > 100 | – |
| YCAGHAWQYIAKCL [Peptide-114] | – | – | 5.49 | – |
| YCAGHAWQAINKCL [Peptide-112] | – | – | > 100 | – |
| YCAGHAWAYINKCL [Peptide-111] | – | – | 12.3 | – |
| YCAGHAAQYINKCL [Peptide-110] | – | – | 3.16 | – |
| YCAGHAWQYINACL [Peptide-115] | – | – | > 100 | – |
| YCAGHAWQYINKCA [Peptide-116] | – | – | 98.6 | – |
| YCAGAAWQYINKCL [Peptide-109] | – | – | > 100 | – |
| MYWCPKYMWSECFA (tested as crude clonal phage supernatant) [Phage-418 clonal phage peptide MYWCPKYMWSECFA] | 0.741 | 0.099 | – | – |
| MAWCPWAQFDECLA (tested as crude clonal phage supernatant) [Phage-433 clonal phage peptide MAWCPWAQFDECLA] | 0.071 | 0.078 | – | – |
| ACAAGASYAWPYCL [Peptide-99] | – | – | 21 | – |

| Binder | CD28 scFv signal [3] | CD28 scFv signal in presence of CD28 [4] | IC50 (anti-CD28 Fab) [µM] | also measured |
| --- | --- | --- | --- | --- |
| SCAAGAAYAWPYCL [Peptide-101] | – | – | 7.42 | – |
| SCAAGASYAWAYCL [Peptide-104] | – | – | > 100 | – |
| SCAAGASYAWPYCA [Peptide-106] | – | – | 76.4 | – |
| SCAAGASYAWPACL [Peptide-105] | – | – | 13 | – |
| SCAAGASYAAPYCL [Peptide-103] | – | – | > 100 | – |
| SCAAAASYAWPYCL [Peptide-100] | – | – | > 100 | – |
| SCAAGASAAWPYCL [Peptide-102] | – | – | > 100 | – |
| MDWCPRDRWDDCFF (tested as crude clonal phage supernatant) [Phage-441 clonal phage peptide MDWCPRDRWDDCFF] | 0.899 | 0.183 | – | – |
| INLCPTPMWNRCWL (tested as crude clonal phage supernatant) [Phage-423 clonal phage peptide INLCPTPMWNRCWL] | 0.103 | 0.101 | – | – |
| MDWCPRDLWVHCFA (peptide, not shown: large carriers, cysteine pairing not given here; also: fused to phage pIII, linker not given here, Clonal phage supernatant) [Phage-29] | – | – | – | CD28 scFv signal in presence of CD28 [5]: 0.179 |
| MDWCPRDRWADCFN (tested as crude clonal phage supernatant) [Phage-436 clonal phage peptide MDWCPRDRWADCFN] | 1.35 | 0.08 | – | – |
| MDWCPRDRWVDCFN (tested as crude clonal phage supernatant) [Phage-440 clonal phage peptide MDWCPRDRWVDCFN] | 0.911 | 0.132 | – | – |
| MDWCPVDRWADCFN (tested as crude clonal phage supernatant) [Phage-437 clonal phage peptide MDWCPVDRWADCFN] | 1.16 | 0.315 | – | – |
| MDWCPRDRWDVCFA (tested as crude clonal phage supernatant) [Phage-439 clonal phage peptide MDWCPRDRWDVCFA] | 0.924 | 0.096 | – | – |
| VILCPTTMWNRCFH (tested as crude clonal phage supernatant) [Phage-427 clonal phage peptide VILCPTTMWNRCFH] | 0.072 | 0.084 | – | – |
| HLFCWEGSDRCAWV (tested as crude phage supernatant) [Phage-1727 (clonal phage displaying the peptide of SEQ ID NO: 2011)] | – | – | – | Anti-PSMA Fab signal in the presence of PSMA [1]: 0.0753; Anti-PSMA Fab (SEQ ID NOs: 19, 20) signal [2]: 1.4 |
| MYWCPINMWDYCYA (tested as crude clonal phage supernatant) [Phage-422 clonal phage peptide MYWCPINMWDYCYA] | 0.109 | 0.088 | – | – |
| ICQWIGATNAWVCY (tested as crude phage supernatant) [Phage-1726 (clonal phage displaying the peptide of SEQ ID NO: 2010)] | – | – | – | Anti-PSMA Fab signal in the presence of PSMA [1]: 0.326; Anti-PSMA Fab (SEQ ID NOs: 19, 20) signal [2]: 1.82 |
| IRCVGEGHDLVCIF (tested as crude phage supernatant) [Phage-1724 (clonal phage displaying the peptide of SEQ ID NO: 2008)] | – | – | – | Anti-PSMA Fab signal in the presence of PSMA [1]: 0.081; Anti-PSMA Fab (SEQ ID NOs: 19, 20) signal [2]: 2.12 |
| MFLCPSAMWNRCFY (tested as crude clonal phage supernatant) [Phage-426 clonal phage peptide MFLCPSAMWNRCFY] | 0.094 | 0.114 | – | – |
| ITQCPSTMWNRCSV (tested as crude clonal phage supernatant) [Phage-424 clonal phage peptide ITQCPSTMWNRCSV] | 0.098 | 0.108 | – | – |
| MAWCPADQWHECFN (tested as crude clonal phage supernatant) [Phage-431 clonal phage peptide MAWCPADQWHECFN] | 1.84 | 0.456 | – | – |
